Experimental data reported in patent US20230137032A1 (GlaxoSmithKline, published 2023).
Values joined by “and” are separate entries in the source; they are usually repeats but may differ in a detail not shown here. Equal values may be shown once.

Legend:
[1] = target: T1, recombinant human BCMA, in house material (human, UniProt Q02223 4-53, limits assumed); test: ProteOn SPR run 2, antibody captured on Protein A, 25C; Run 2 (Table 9)
T1 construct: also called Human in house BCMA; In house human BCMA
Protocol: The initial screen of CA8 chimeric and humanised variants was carried out on the ProteOn XPR36 (Biorad). The method was as follows; Protein A was immobilised on a GLC chip (Biorad, Cat No: 176-5011) by primary amine coupling, CA8 variants were then captured on this surface and recombinant human BCMA (in house or commercial US Biological, B0410) materials (run 2 only)) passed over at 256, 64, 16, 4, 1 nM with a 0 nM injection (i.e. buffer alone) used to double reference the binding curves, the buffer used is the HBS-EP buffer. 50 mM NaOH was used to regenerate the capture surface. The data was fitted to the 1:1 model using the analysis software inherent to the ProteOn XPR36. […] Both runs were carried out at 25° C.

cyno BCMA-Fc = target: T2, cyno BCMA-Fc (cyno); test: ELISA on coated cyno BCMA-Fc, anti-human IgG HRP, TMB
T2 construct: also called Cyno BCMA CD33 cyno BCMA ECD (4-52) TEV-Fc; recombinant cyno BCMA
T2 sequence (chain, as listed by the source limits assumed): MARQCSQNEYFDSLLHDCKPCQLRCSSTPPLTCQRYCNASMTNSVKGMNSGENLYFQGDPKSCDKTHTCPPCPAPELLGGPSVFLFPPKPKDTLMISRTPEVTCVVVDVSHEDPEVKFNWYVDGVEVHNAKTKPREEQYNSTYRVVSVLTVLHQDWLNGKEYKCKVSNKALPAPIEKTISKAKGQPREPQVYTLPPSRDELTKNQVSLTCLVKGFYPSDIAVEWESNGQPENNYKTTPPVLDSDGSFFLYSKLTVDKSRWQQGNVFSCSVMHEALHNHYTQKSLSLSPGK
Protocol: Human BCMA-Fc and cyno BCMA-Fc were coated to ELISA plates and the plates were blocked using BSA to reduce non specific binding. CA8 chimeric antibodies were added in a concentration range from 5 ug/ml to 0.1 ug/ml to the human and cyno BCMA coated ELISA plates. […] HRP substrate (TMB) was added to develop the ELISA.

[2] = target: T3, human BCMA expressed on cells (human, UniProt Q02223 1-184); test: cell-based or functional assay
T3 sequence (looked up): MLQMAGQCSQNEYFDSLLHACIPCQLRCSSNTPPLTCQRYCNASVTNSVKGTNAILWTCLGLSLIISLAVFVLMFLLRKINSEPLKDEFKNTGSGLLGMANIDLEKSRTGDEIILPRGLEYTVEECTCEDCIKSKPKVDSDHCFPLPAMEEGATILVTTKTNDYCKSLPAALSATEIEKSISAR

[3] = target: T4, recombinant cyno BCMA, in house material (cyno, UniProt A0A2K5UD97 4-52); test: Biacore T100, antibody captured on Protein A, 37C
T4 construct: also called Cyno in house BCMA
T4 sequence (A0A2K5UD97 entry or part of it): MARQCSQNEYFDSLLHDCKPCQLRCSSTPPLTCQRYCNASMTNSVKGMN

[4] = target: T5, recombinant human BCMA, commercial (US Biological, B0410) (human, UniProt Q02223 5-54, limits assumed); test: Biacore T100, antibody captured on Protein A, 37C
T5 construct: also called commercial human BCMA; Human commercial BCMA
T5 chain (looked up): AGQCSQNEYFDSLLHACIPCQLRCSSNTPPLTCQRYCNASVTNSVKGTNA

[5] = target: T5, recombinant human BCMA, commercial (US …); test: Biacore T100, antibody captured on Protein A, 25C, experiment 1
Protocol: Protein A was immobilised on a CMS chip (GE Healthcare, Cat No: BR-1005-30) by primary amine coupling and this surface was then used to capture the antibody molecules. Recombinant human BCMA (US Biological, B0410) was used as analyte at 256 nM, 64 nM, 16 nM, 4 nM and 1 nM. Regeneration of the capture surface was carried out using 50 mM NaOH. All binding curves were double referenced with a buffer injection (i.e. 0 nM) the data was fitted to the using the 1:1 model inherent to T100 evaluation software. The run was carried out at 25° C. and 37° C. for experiment 1 and only 37° C. for experiment 2 using HBS-EP as the running buffer.

[6] = target: T3, human BCMA expressed on cells; test: FACS on U266 cells, PE anti-human IgG, MFI
Protocol: Cells were then washed with FACS buffer (PBS+0.5% BSA+0.1% sodium azide) to remove unbound antibody. Cells were incubated with a secondary PE labelled anti-human IgG antibody for 15 minutes at RT and then washed with FACS buffer to remove unbound antibody. Cells were analysed by FACS and mean fluorescence intensity (MFI) values measured to determine binding.

[7] = target: T6, cyno BCMA expressed on HEK293 cells (cyno, UniProt A0A2K5UD97 1-183); test: FMAT cell binding on HEK293 cells transfected with cyno BCMA, anti-human IgG FMAT Blue detection
T6 construct: whole, on cells; also called cyno BCMA HEK293
T6 sequence (A0A2K5UD97 entry or part of it): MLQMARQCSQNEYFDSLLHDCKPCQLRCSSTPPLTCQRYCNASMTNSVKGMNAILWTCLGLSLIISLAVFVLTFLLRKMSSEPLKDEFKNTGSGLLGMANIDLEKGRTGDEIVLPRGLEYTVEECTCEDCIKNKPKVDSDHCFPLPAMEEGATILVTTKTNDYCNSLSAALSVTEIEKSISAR
Protocol: Cryopreserved transfected human, cyno BCMA and mock transfected HEK293 cells were recovered from LN2 storage. […] The assay plates were left for a minimum of 90 minutes before the result was read on the ABI8200 (FMAT) plate reader.

B1: CA8 chimera antibody (human chimeric CA8) (antibody, V domains shown)
VH: EVQLQQSGAVLARPGASVKMSCKGSGYTFTNYWMHWVKQRPGQGLEWIGATYRGHSDTYYNQKFKGKAKLTAVTSTSTAYMELSSLTNEDSAVYYCTRGAIYNGYDVLDNWGQGTLVTVSS
VL: DIQLTQTTSSLSASLGDRVTISCSASQDISNYLNWYQQKPDGTVELVIYYTSNLHSGVPSRFSGSGSGTDYSLTIGYLEPEDVATYYCQQYRKLPWTFGGGSKLEIKR
notes: also called Chimera CA8; CA8 chimeric antibody
[1]
  Kd: 0.412 nM
Cyno BCMA-Fc
  binding result: binds
[2]
  APRIL induced IC50 (phosphorylated NFkappaB in H-929 cells, MSD assay): 38.5 ug/ml and 257 nM
  BAFF induced IC50 (phosphorylated NFkappaB in H-929 cells, MSD assay): 1.5 ug/ml and 10 nM
[3]
  Kd: 0.305 nM
[4]
  Kd: 0.036 nM
[5]
  Kd: 0.14 nM
[6]
  EC50 (read off the curve): ~0.3 µg/mL
[7]
  EC50 (read off the curve): ~0.3 µg/mL
